Measurements: article PMC3548949

What was measured:
[1] = test system: CC(=O)NCCCNCCCCNCCCN; assay: steady-state oxygen consumption, oxygen electrode; assay type: biochemical, Saccharomyces cerevisiae; conditions: 1.2 mM oxygen, pH 9.0, 10% glycerol, 25 °C, pH 9.0
[2] = test system: NCCCNCCCCNCCCN; assay: steady-state oxygen consumption, oxygen electrode; assay type: biochemical, Saccharomyces cerevisiae; conditions: 1.2 mM oxygen, pH 9.35, 10% glycerol, 25 °C, pH 9.35

For “Fms1 (Saccharomyces cerevisiae S288C; N195A)”, the Km [1] was 104 ± 14 µM, the kcat [1] was 8.1 ± 0.2 s⁻¹ and the kcat/Km [1] was 78000 ± 13000 M⁻¹ s⁻¹. For the same substance, the Km [2] was 127 ± 27 µM, the kcat [2] was 4.9 ± 0.2 s⁻¹ and the kcat/Km [2] was 38500 ± 8300 M⁻¹ s⁻¹.
With “Fms1 (Saccharomyces cerevisiae S288C; D94N)” the Km [1] was 30 ± 5 µM, the kcat [1] was 9.7 ± 0.2 s⁻¹ and the kcat/Km [1] was 320000 ± 50000 M⁻¹ s⁻¹. For the same substance, the Km [2] was 320 ± 88 µM and the kcat [2] was 2.0 ± 0.3 s⁻¹.
